According to patent US20230257470A1 (published 2023):
Substitutions are numbered along the chain they refer to. In names and notes the source's numbering stands. Each block holds one binder with its values, some of them ahead of it.

Assays:
[1] = target: T1, human FcγRIIa(R) (allotype R131) (human, UniProt P12318 36-217); assay: SPR (Biacore T100), antibody captured by Protein L, FcγR as analyte, pH 7.4, 25 C
T1 construct: Soluble analyte in SPR; also called hFcgRIIa(R); FcgRIIaR
T1 chain: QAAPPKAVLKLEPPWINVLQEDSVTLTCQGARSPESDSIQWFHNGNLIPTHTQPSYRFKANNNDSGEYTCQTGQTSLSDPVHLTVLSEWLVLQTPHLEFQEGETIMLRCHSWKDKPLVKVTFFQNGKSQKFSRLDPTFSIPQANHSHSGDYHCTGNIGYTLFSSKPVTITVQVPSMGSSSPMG

human FcγRIIb [2] = target: T2, human FcγRIIb (human, UniProt P31994 43-217, limits assumed); assay: as above
T2 construct: Soluble analyte in SPR; also called hFcgRIIb; FcgRIIb
T2 sequence: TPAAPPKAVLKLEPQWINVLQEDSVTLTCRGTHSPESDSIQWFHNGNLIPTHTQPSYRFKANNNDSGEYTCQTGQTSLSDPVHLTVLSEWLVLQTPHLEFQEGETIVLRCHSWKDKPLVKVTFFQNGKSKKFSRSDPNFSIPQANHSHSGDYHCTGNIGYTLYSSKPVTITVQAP

human FcγRIIa type R = target: T3, human FcγRIIa type R (human, UniProt P12318 36-217); assay: SPR (Biacore), antibody captured, FcγR as analyte, method of Example 14
T3 construct: also called FcγRIIaR; FcγRIIa(R)
T3 chain: T1 chain

mouse FcγRI = target: T4, mouse FcγRI (mouse, UniProt P26151 25-297); assay: SPR, antibody captured by Protein L, mouse FcγR injected, pH 7.4
T4 construct: Bought protein; construct not described; also called mFcgRI
T4 sequence (looked up): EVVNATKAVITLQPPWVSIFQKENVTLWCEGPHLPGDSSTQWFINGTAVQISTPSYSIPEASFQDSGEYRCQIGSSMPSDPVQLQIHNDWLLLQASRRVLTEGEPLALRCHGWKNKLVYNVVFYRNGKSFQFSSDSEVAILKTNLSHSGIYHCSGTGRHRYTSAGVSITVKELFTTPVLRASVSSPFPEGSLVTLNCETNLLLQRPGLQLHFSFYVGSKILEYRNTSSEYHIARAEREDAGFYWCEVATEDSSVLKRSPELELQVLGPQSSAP

mouse FcγRIII = target: T5, mouse FcγRIII (mouse, UniProt P08508 31-215); assay: as above
T5 construct: Bought protein; construct not described; also called mFcgRIII
T5 sequence (looked up): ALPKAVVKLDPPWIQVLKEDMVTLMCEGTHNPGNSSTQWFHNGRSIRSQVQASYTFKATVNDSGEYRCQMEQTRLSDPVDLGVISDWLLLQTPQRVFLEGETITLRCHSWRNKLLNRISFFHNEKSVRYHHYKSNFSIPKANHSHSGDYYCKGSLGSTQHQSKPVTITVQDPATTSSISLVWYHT

mouse FcγRIIb = target: T6, mouse FcγRIIb (mouse, UniProt P08101 40-217, limits assumed); assay: as above
T6 construct: Bought protein; construct not described; also called mFcgRIIb
T6 sequence (looked up): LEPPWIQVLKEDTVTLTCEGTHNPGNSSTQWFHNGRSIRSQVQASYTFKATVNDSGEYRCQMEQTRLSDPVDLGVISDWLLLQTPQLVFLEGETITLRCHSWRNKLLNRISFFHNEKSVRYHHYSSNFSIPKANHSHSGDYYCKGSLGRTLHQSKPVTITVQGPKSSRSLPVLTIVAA

human FcγRIIb [3] = target: T7, human FcγRIIb (human, UniProt P31994 43-217, limits assumed); assay: ratio of SPR KD values: KD for FcγRIIaH divided by KD for FcγRIIb
T7 construct: Whole entry (AAI46679.1); also called FcγIIB; FcgRIIb
T7 sequence: T2 sequence

human FcγRIIb [4] = target: T8, human FcγRIIb (human, UniProt P31994 43-217, limits assumed); assay: SPR, antibody captured, FcγR as analyte, capture-corrected binding amount
T8 construct: also called FcgRIIb; FcγIIB
T8 sequence: T2 sequence

human FcγRIIIa(F) = target: T9, human FcγRIIIa(F) (human, UniProt P08637 17-208, limits assumed); assay: as above
T9 construct: the assay used allotype F; also called FcgRIIIaF; FcγRIIIa allotype F158

human FcγRIIa(H) [5] = target: T10, human FcγRIIa(H) (human, UniProt P12318 36-217); assay: SPR (Biacore), captured antibody, FcγR analyte
T10 construct: also called FcgRIIaH; FcγRIIa type H
T10 sequence: T1 chain with R133H

human FcγRIIa(R) = target: T11, human FcγRIIa(R) (human, UniProt P12318 36-217); assay: SPR, captured antibody, FcγR analyte; bound amount per captured antibody
T11 construct: also called FcgRIIaR; FcγRIIa type R
T11 chain: T1 chain

human FcγRIIa(H) [6] = target: T12, human FcγRIIa(H) (human, UniProt P12318 36-217); assay: SPR, antibody captured, FcγR as analyte, capture-corrected binding amount
T12 construct: also called FcgRIIaH; FcγRIIa type H
T12 sequence: T1 chain with R133H

T9 sequence (P08637 other isoform, or with tags, fused parts or gaps limits assumed): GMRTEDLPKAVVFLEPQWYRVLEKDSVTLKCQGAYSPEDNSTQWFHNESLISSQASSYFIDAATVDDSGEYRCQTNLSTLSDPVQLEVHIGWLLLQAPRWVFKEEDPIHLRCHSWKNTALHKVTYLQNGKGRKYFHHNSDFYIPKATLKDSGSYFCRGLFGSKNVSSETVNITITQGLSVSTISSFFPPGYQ

BINDING AMOUNT (RU) [1]: 9.1 RU
BINDING AMOUNT (RU) (human FcγRIIb [2]): 64 RU
B1: antibody containing VH3-IgG1-F652 for the heavy chain and L(WT)-CK for the light chain (antibody)
heavy: QVQLQESGPGLVKPSETLSLTCAVSGHSISHDHAWSWVRQPPGEGLEWIGFISYSGITNYNPSLQGRVTISRDNSKNTLYLQMNSLRAEDTAVYYCARSLARTTAMDYWGEGTLVTVSSASTKGPSVFPLAPSSKSTSGGTAALGCLVKDYFPEPVTVSWNSGALTSGVHTFPAVLQSSGLYSLSSVVTVPSSSLGTQTYICNVNHKPSNTKVDKKVEPKSCDKTHTCPPCPAPELLGGDSVFLFPPKPKDTLYISRTPEVTCVVVDVSHEDPEVKFNWYVDGVEVHNAKTKPREEQYNSTYRVVSVLTVLHQDWLNGKEYKCKVSNKALPAPIEKTISKAKGQPREPQVYTLPPSRDELTKNQVSLTCLVKGFYPSDIAVEWESNGQPENNYKTTPPVLDSDGSFFLYSKLTVDKSRWQQGNVFSCSVMHEALHYHYTQKSLSLSP
light: not shown
notes: VH3-IgG1-F11 with P238D (EU numbering)

Kd (human FcγRIIa type R): 1.4 µM
B2: IL6R-PD082/IL6R-L (antibody, human IgG1)
heavy: B1 heavy with G239F
light: DIQMTQSPSSLSASVGDRVTITCRASQDISSYLNWYQQKPGKAPKLLIYYTSRLHSGVPSRFSGSGSGTDFTFTISSLQPEDIATYYCQQGNTLPYTFGQGTKVEIK
notes: Alteration is counted against IL6R-F11; also called G237F/P238D; P238D/G237F

binding result (mouse FcγRI): no binding
binding result (mouse FcγRIII): no binding
binding result (mouse FcγRIIb): no binding
B3: VH3/L(WT)-IgG1-F1009 (antibody)
heavy: B1 heavy with L237R, D240P, S241K, T252V, T309Q, V310P, Q313A, Y438V
light: not shown
notes: L235R/S239K variant of VH3-IgG1-F947 with L(WT)-CK; also called VH3-IgG1-F1009; copies: 2 + 2

KD(IIaH)/KD(IIb) (human FcγRIIb [3]): 77.7
B4: IL6R-BP147/IL6R-L (antibody, human IgG1, name in EU numbering)
heavy: B1 heavy with L236Y, G239D, Y254M, K328A, A332K, Y436N, K441E
light: B2 light
notes: Alterations introduced into IL6R-B3 (EU numbering)

KD(IIaH)/KD(IIb) (human FcγRIIb [3]): 4.71
B5: IL6R-BP143/IL6R-L (antibody, human IgG1, name in EU numbering)
heavy: B1 heavy with L236Y, Y254M, K328A, Y436N, K441E
light: B2 light
notes: as for B4

relative binding activity (human FcγRIIa(H) [5]): 1 % of GpH7-B3/GpL16-k0
B7: GpH7-B3 variant V266R/GpL16-k0 (antibody, human IgG1)
heavy: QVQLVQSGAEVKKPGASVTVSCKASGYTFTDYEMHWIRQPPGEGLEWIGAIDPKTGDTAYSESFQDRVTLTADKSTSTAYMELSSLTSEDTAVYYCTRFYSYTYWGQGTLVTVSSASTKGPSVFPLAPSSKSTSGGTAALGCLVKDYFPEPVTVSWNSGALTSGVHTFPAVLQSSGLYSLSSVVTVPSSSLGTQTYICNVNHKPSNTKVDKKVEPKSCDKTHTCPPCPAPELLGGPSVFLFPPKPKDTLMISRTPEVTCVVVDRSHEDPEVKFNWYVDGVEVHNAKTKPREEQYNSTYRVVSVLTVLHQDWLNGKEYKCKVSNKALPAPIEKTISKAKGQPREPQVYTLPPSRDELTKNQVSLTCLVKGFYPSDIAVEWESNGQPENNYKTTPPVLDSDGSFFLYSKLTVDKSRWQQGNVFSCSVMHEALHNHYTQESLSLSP
light: DIVMTQSPLSLPVTPGEPASISCQASESLVHSNRNTYLHWYLQKPGQSPQLLIYKVSNRFSGVPDRFSGSGSGTDFTLKISRVEAEDVGVYYCSQNTHVPPTFGQGTKVEIE
notes: anti-glypican-3 IgG1; alteration introduced into GpH7-B3; copies: 2 + 2

relative binding activity (human FcγRIIa(H) [5]): 1 % of GpH7-B3/GpL16-k0
B11: GpH7-B3 variant V266K/GpL16-k0 (antibody, human IgG1)
heavy: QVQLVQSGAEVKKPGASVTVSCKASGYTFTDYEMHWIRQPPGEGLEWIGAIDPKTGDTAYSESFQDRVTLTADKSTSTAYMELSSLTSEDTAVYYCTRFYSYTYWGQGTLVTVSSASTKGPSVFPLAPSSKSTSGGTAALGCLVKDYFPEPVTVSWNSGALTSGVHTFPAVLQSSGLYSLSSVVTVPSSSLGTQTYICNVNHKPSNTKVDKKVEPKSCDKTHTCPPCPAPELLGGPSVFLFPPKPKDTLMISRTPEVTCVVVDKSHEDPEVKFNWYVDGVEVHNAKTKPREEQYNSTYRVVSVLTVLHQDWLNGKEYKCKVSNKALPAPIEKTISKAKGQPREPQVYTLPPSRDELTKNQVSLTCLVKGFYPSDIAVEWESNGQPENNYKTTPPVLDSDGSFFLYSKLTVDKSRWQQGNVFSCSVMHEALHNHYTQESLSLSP
light: B7 light
notes: as for B7

Continued, binder first:

B6: GpH7-B3 L328R/GpL16-k0 (antibody, human IgG1)
heavy: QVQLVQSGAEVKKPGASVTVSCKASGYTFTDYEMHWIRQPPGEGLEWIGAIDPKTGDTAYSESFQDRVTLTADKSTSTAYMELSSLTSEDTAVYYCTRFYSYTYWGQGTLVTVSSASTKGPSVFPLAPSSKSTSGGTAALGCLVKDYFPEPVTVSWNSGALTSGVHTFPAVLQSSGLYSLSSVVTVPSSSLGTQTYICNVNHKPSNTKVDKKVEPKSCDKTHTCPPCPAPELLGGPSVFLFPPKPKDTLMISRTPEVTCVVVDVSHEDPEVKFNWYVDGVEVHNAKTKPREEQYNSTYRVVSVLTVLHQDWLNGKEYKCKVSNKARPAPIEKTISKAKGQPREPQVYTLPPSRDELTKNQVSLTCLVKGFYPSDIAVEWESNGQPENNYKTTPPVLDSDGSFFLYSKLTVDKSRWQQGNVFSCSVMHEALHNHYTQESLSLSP
light: B7 light
notes: Anti-glypican-3 human IgG1 with B3 constant region (G1d with K439E); also called B3 variant; copies: 2 + 2
relative binding activity (human FcγRIIb [4]): 3 % of GpH7-B3/GpL16-k0
relative binding activity (human FcγRIIIa(F)): 1 % of GpH7-B3/GpL16-k0

B8: GpH7-B3 G236K/GpL16-k0 (antibody, human IgG1)
heavy: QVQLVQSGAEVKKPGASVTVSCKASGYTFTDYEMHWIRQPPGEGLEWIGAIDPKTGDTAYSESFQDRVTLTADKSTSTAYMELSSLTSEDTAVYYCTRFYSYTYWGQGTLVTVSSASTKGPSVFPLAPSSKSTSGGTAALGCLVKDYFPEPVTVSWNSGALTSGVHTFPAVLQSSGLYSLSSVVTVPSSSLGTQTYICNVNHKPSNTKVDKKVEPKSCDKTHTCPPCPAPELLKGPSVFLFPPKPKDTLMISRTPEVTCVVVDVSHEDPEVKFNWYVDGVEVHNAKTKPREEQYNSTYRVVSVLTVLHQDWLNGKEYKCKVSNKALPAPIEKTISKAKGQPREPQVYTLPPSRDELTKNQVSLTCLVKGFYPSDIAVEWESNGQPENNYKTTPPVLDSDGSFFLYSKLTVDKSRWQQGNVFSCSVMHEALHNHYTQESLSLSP
light: B7 light
notes: anti-glypican-3 IgG1; B3 constant region (G1d with K439E); also called B3 variant; copies: 2 + 2
relative binding activity (human FcγRIIa(R)): 9 % of GpH7-B3/GpL16-k0

B9: GpH7-B3 N325Y/GpL16-k0 (antibody, human IgG1)
heavy: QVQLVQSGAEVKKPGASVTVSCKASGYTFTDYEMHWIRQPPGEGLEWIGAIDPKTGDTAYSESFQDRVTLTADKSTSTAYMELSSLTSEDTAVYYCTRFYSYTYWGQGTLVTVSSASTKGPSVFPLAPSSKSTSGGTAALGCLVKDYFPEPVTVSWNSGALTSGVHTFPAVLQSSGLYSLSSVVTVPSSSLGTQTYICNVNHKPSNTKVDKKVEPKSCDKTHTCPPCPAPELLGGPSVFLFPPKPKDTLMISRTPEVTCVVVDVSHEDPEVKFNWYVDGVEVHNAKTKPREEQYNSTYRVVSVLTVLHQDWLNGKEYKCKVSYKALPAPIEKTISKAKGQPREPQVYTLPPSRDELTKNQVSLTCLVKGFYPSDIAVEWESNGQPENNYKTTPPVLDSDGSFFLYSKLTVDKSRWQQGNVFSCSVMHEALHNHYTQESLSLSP
light: B7 light
notes: as for B6
relative binding activity (human FcγRIIa(H) [6]): -9 % of GpH7-B3/GpL16-k0

B10: GpH7-B3 L234G/GpL16-k0 (antibody, human IgG1)
heavy: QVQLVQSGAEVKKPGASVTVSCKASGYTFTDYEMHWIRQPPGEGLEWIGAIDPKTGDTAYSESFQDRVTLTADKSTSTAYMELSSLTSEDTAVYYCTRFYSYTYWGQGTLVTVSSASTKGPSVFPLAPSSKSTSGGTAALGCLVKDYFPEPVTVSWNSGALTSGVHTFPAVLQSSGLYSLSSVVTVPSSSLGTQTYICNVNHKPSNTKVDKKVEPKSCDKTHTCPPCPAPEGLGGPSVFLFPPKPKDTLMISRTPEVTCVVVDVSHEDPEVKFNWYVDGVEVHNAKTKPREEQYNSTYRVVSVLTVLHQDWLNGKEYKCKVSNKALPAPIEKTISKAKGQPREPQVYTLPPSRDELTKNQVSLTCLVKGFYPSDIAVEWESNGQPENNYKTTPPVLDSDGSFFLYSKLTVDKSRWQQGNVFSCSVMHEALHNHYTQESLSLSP
light: B7 light
notes: as for B8
relative binding activity (human FcγRIIa(R)): 9 % of GpH7-B3/GpL16-k0

B12: GpH7-B3 P329Q/GpL16-k0 (antibody, human IgG1)
heavy: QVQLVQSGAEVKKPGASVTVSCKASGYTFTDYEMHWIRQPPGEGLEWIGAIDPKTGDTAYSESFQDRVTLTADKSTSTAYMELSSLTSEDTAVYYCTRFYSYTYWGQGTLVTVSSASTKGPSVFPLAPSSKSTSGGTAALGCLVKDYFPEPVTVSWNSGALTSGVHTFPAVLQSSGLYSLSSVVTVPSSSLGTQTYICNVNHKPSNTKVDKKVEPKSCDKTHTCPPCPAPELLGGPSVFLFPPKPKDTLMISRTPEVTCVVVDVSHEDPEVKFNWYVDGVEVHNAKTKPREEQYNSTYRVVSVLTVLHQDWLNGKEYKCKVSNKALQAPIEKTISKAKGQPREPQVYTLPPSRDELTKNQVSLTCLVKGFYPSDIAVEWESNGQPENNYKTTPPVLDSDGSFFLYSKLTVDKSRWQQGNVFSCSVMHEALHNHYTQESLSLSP
light: B7 light
notes: as for B6
relative binding activity (human FcγRIIb [4]): 2 % of GpH7-B3/GpL16-k0
relative binding activity (human FcγRIIIa(F)): 1 % of GpH7-B3/GpL16-k0
